# In the DeepSol protein solubility set:
# Experiment: soluble on expression in E. coli; label from the status in PepcDB or PDB records
row,Sequence,soluble on expression in E. coli
1,MGSDKIHHHHHHMSDSHQGSCLCGAVRFRTKGALRGVVYCHCSQCRKQSGHFYAATNVADADIVIEGTESITWYEASAFAGRGFCKTCGSVLFWKPRTQDYISVMAGAFDKPTGLKGDCHIFVGDKGDYYSIDDGLPQFEKSTPSIAVAE,not soluble
2,MGSDKIHHHHHHMSDTLIELRNIGKRFGGVRALDGVSLAIRPGEIHCLAGENGSGKSTVIKVMSGIYTPEEGEILIDGRPVGRLDPIRAVQHGVQVIYQDFSLFGNLTVAENLALNTYVLEGRRRMDWRRARTMAVEVLARLGVDIDPDAEVGTLPTSGRQVVAIARAILAKARLIIMDEPTTALTRHEVDALFAIVRDLQAQGIAVLFVSHKMREMLEISERLTVFRNGRKVAEGPMSDFDEAAITHAMTGLSLTDDPYRPTLPPGPPLLEVRKLSVPGSVQDIDLSLRPGEIVGISGLIGSGRTELARALFGMEPAMTGTLRLEGREIHPRSVQEAIALGIAYVPEDRLTEGLFLPQSIERNLVVSILERLRRGPFLDTRAVREKTLGMFRDMQIAAPSPETAVGNLSGGNAQRVMLGRWLLTGARVLILNGPTVGVDVGSKATIHRIIRDLAQREGLGVLMISDDVPELVTNCNRIHVMHRGRFVADLDGSGMTEDRINDALKTLN,not soluble
3,MGSDKIHHHHHHMSDVLAYSVPAPAVVFPPMSPAPRVVPIAVQAPRKDALGCTACSMRSICMPQGLTPTELQRIEALICPSRTIKQGETIYRANDSFQSIYVVRVGSFKTVVMHRDGREQVTGFHLAGDSLGLDGVCSGHHSCDAIALEDSKMCIIPFHLLETMCREVKAVQQHVHRMMGGEIVRESSQMMLLGTMSAEQRVAT,not soluble
4,MGSDKIHHHHHHMSDYLRGKRVVDPVLTSVARGYKNAAFVGESIFPIVQVEKEGIVVPLFGKGAFVEYDTERAVGAESNVLLREKSSSMDLVLNEHDLAAPVDYREQAESLFNEEAKAIRRATNGVNLKRELYAARLAQDPKVYLAASKKTLAAAERWANGKGEPVTVIEAGIEAVRNATGLRPNLLTMGASVMSVLRYHPAIQAQIGANERKRITAEILQDIFQINKVLIGEPVSSPDGKKAPIDVWADNLMLHYVSPPQPGTESADENEPSFGYTFRRKGMPVSDKYPGVGGKVSYARFTDIYKVAVVGGDAGYLITNILK,not soluble
5,MGSDKIHHHHHHMSEAPHLTFDLDTPGVSTGHLVVPKGADCEALSLPVFSCNRGEGPSLLITGGNHGNELQGPILARRLVKWLPEAQRCGRIIIVPEINPLAVQAWTRNTPIDGKNLNRVFPGRSDGSVSERIADAISRLLLPVVDTVLDLHSFGPTWDCAPSIISHPIADIDQMTKTVSISKAFKLPVTLLWEHNETDGMFDTLVHRQGKTFICTEFGGGVVSAEALTIYEAGVRNGLIALGLVKGKAEYPTFRQQKTGQTLETTSSDQLKSPSPGIFEPRCSVMDEVEQGDVVGVLHPMGSLSAASIDIRAQSKSTVFAIRSAMYVQGNEEVAILARPLAR,not soluble
6,MGSDKIHHHHHHMSEATLLSYTKKLLASPPQLSSTDLHDALLVILSLLQKCDTNSDESLSIYTKVSSFLTALRVTKLDHKAEYIAEAAKAVLRHSDLVDLPLPKKDELHPEDGPVILDIVGTGGDGQNTFNVSTSAAIVASGIQGLKICKHGGKASTSNSGAGDLIGTLGCDMFKVNSSTVPKLWPDNTFMFLLAPFFHHGMGHVSKIRKFLGIPTVFNVLGPLLHPVSHVNKRILGVYSKELAPEYAKAAALVYPGSETFIVWGHVGLDEVSPIGKTTVWHIDPTSSELKLKTFQLEPSMFGLEEHELSKCASYGPKENARILKEEVLSGKYHLGDNNPIYDYILMNTAVLYCLSQGHQNWKEGIIKAEESIHSGNALRSLEHFIDSVSSL,not soluble
7,MGSDKIHHHHHHMSEEPRYLAVDVGGTNLKYALINRSGQMIKKSRMETPHEGLTQFLEAIEKISDKLKGQLNGVAFSTPGRVDTTTDTIYCRNSTLPYLNEVCLPRKLQKLGLPISVENDGKSAALAESWLGNLNDVKNGMAIVLGTCVGGGIMLDGHLWAGSRRLAGEVSLMPADQTNLADDGLFGKTGSAVRMIEAVNTVIGASCLTDGHCAFAAINAGQAQATQIFRQYAREVAALILNVQTVLDLDRYVIGGGISFQPILIDEINRQYDWILERRPWVKSTIARPEILSSRFHNDANLYGALYRLFNKLDAKHDVPIDLDNLLVNAGR,not soluble
8,MGSDKIHHHHHHMSEETTGQLPDVLWHYTTFDTLTAILTSQCLLASDFRDTNDREEILFGFKALRDAFGTHNTWNTTEGFADPVSAAIRENEERIIEDLESSFLHGQMICLSSARDSLSMWRGYGQLTNGGGNGAVAIGFCAADLQTFCGPSDATLQSSTAHIQQNASGGFEGPSNVDYAFRNFPQLSNALSNEDYSADFHLKWTHYLAHWMKHRKHPAFAEEREYRIWGHAYDGNDKGNSQHVVFVGNHDRRKFHLAPAPDDILGPLTHPLAIQKIMVGPKTDFAKVERFTRNVFQSYTHDRPDMCASKIPFK,not soluble
9,MGSDKIHHHHHHMSEPVIKSLLDTDMYKITMHAAVFTNFPDVTVTYKYTNRSSQLTFNKEAINWLKEQFSYLGNLRFTEEEIEYLKQEIPYLPSAYIKYISSSNYKLHPEEQISFTSEEIEGKPTHYKLKILVSGSWKDTILYEIPLLSLISEAYFKFVDIDWDYENQLEQAEKKAETLFDNGIRFSEFGTRRRRSLKAQDLIMQGIMKAVNGNPDRNKSLLLGTSNILFAKKYGVKPIGTVAHEWVMGVASISEDYLHANKNAMDCWINTFGAKNAGLALTDTFGTDDFLKSFRPPYSDAYVGVRQDSGDPVEYTKKISHHYHDVLKLPKFSKIICYSDSLNVEKAITYSHAAKENGMLATFGIGTNFTNDFRKKSEPQVKSEPLNIVIKLLEVNGNHAIKISDNLGKNMGDPATVKRVKEELGYTERSWSGDNEAHRWT,soluble
10,MGSDKIHHHHHHMSESHLYTYGIIDDNESLALNVDGVAGATRAYTVSYRSLSAVVSDIETTDPERTDAAVEAHNTVLQAVLEHDATRAVVPMSFGMAFKNARTLKGVLRGARRALRSTLTEIAGTVELGVKVLAPGDDTAVDTAAVRSDVTARLSALSVGETENDCFTDRLIINKSYLVEHDTRDAFDAAIDEIDAAHDDLTVRYTGPWPPYNFVDIHIGAEQAQQGGR,not soluble
11,MGSDKIHHHHHHMSGFLAVKFPVKEASVADQQDFLGRFDAMSSKATATVIAHYSSSFTLASKLLSPKIRRDIEALYAMVRVADEVVDGAAAAAGCAPDAVAEILDNYERQVLLSLSVPFHTDPVIHAFGNTARKCGFEQAHIVAFFDSMRRDLSQTSYDPTQLDEYIYGSAEVIGLMCLKIFLQDSTASPQDRATMEHGARRLGAAFQKVNFLRDLAEDREGLGRSYLPVFTEEMRDEIVTDIREDLDAARLSIPLLPFGARTGVRAATDLYGCLVDNLESASLEDLKNGRIRVPSMKKASLATKAMWKEVFQK,not soluble
12,MGSDKIHHHHHHMSGHKCSYPWDLQDRYAQDKSVVNKMQQKYWETKQAFIKATGKKEDEHVVASDADLDAKLELFHSIQRTCLDLSKAIVLYQKRICFLSQEENELGKFLRSQGFQDKTRAGKMMQATGKALCFSSQQRLALRNPLCRFHQEVETFRHRAISDTWLTVNRMEQCRTEYRGALLWMKDVSQELDPDLYKQMEKFRKVQTQVRLAKKNFDKLKMDVCQKVDLLGASRCNLLSHMLATYQTTLLHFWEKTSHTMAAIHESFKGYQPYEFTTLKVWKLEGPLENLEKSKVLFISQAKSIAESIIIPGLRMLKRELCPQQSLFLSFFLFFYCIRIQYNENLLQSKSAN,not soluble
13,MGSDKIHHHHHHMSGIEAFSPKGMLHECWSAQANDYAIVCGWALQGKTFLVGDVAGGLYAFEGISGKLIWQIKDIHKGGLLAMSIHPNGKTFATAGQDGHVNIWESQKGTSTKTLELGKGWVEHIKWSPDGKFLAVVFTKYVYVFDDKGQEHWRSEEHPSTVSAIAWSNSNELATACYGQVTFFDVVNDKINQKLEWRGSLVSMVLSPDGDIVACGSQDNSVHFWRRSTDQDSEMTGYPGKPSHLAFDQTGTVLATGGSDRVTVWSFQGDGPEGTVPGELMLHTEPISCLAFSHSGMLLASGSRDGSVFSWFLQKDGQGDPVGGAFAGDLVSQIAWHPDDTALAAINANGGITVWEFKVRTKTSPQGFG,not soluble
14,MGSDKIHHHHHHMSHANQAIPLDEEAIFDAMPMEEEGQFANHATPLIRNCWYVCARRDEVGRTPISRRLLDTDVVMYRTRDGRPVAMHNRCPHRAFPLAKGHVEGDRLVCGYHGMQFEPDGLCAHLPAISHVPANACVQTYPIADRGPLTWIWMGDANLADEALIPELPWLASSEWGSVTGDFHIKADYVSMHENLIDQTHFPFLHPGTVGTPEYARASMNATTEGDQVLIHRRLDNAPPPGIYGKPADIMHKNVDRTSEARFVSPAVHMAHARIFDPQPEPGKPSVYGYYITHCFTPESNHSIHYWWFNSRDYGIDDTDIDAFMYEASMQAYYEDVEALEWIMDVVLTDNEAQQFELSFAPDKPGLMARRIMHRLAMSERG,not soluble
15,MGSDKIHHHHHHMSHVSYAEPPAQGWDIHCHTVFSDGTETPRTLVEQARKLGLHGVAIADHDTTAGWDEATEASEEIGLPLLLGTEITAVDEDVSVHMLAFQYDPSNEHISSMFANTRAARLRRTKRMVERLSQDFPITWDDVLAQVKEGERTTIGRPHIADALVAAGVYETRSDAFADAVSAKSKYYIPTPSPSTHEVIAAVKGAGGVVVAAHAGDPQRNRRLLSDEQLDAMIADGLDGLEVWHRGNPPEQRERLLTIAARHDLLVTGGSDWHGKGKPNGLGENLTDDDTVREILCRGVDLIGRVGSSHAA,not soluble
16,MGSDKIHHHHHHMSILYEERLDGALPDVDRTSVLMALREHVPGLEILHTDEEIIPYECDGLSAYRTRPLLVVLPKQMEQVTAILAVCHRLRVPVVTRGAGTGLSGGALPLEKGVLLVMARFKEILDINPVGRRARVQPGVRNLAISQAVAPHNLYYAPDPSSQIACSIGGNVAENAGGVHCLKYGLTVHNLLKIEVQTLDGEALTLGSDALDSPGFDLLALFTGSEGMLGVTTEVTVKLLPKPPVARVLLASFDSVEKAGLAVGDIIANGIIPGGLEMMDNLSIRAAEDFIHAGYPVDAEAILLCELDGVESDVQEDCERVNDILLKAGATDVRLAQDEAERVRFWAGRKNAFPAVGRISPDYYCMDGTIPRRALPGVLEGIARLSQQYDLRVANVFHAGDGNMHPLILFDANEPGEFARAEELGGKILELCVEVGGSISGEHGIGREKINQMCAQFNSDEITTFHAVKAAFDPDGLLNPGKNIPTLHRCAEFGAMHVHHGHLPFPELERF,not soluble
17,MGSDKIHHHHHHMSKIGETPLDMGLKDAIIGIFIWNKEKGIFEPFENRLRKKARALLEYYTDLANDELKPYVISKTIIDNVVDEIKDKTLIPLPNEPLRVAFPNCTLEWKISHGRYVPSFVLAEERTPEHFAFHYIPHKIHLEELVKINEEVLSARDIPIDLIEDLARRLCPKSLEVFKQWANEKWVTLFEIIGYTLFPKIEFRKAFMILGPRGTGKSTFINLIKKLLGRGNVVNIPLHILFGDKNRFVLAELYHKLVNAVSETKEYNLDDMDTLKVLTGGDRITADVKFKDPITFTPYAKLVIASNKPPTIRDKNDMAFWHRWLIIEFPNQFEDNTAWGDKTFTEDELEGILTVSILAFSRVLLHGKFDFEQTEEEVRGIWLSTIDYVYKFVKEKLKHGEIMITKNADDYVRVKELYRMYLEYCSTNGYNATTYKGFVRRLRDYFNLTVVMKNVEGKRFRAVVGIKINTVQTNETTGGDYGEFLNYILKNNHMIKEFADLVRDFGSTEKANVFIDFCTKKNMCFSRGIDAWEISIQPRGFSFL,not soluble
